Article PMC8396344, “Palmitoylation of Prolactin-Releasing Peptide Increased Affinity for and Activation of the GPR10, NPFF-R2 and NPFF-R1 Receptors: In Vitro Study” (International Journal of Molecular Sciences, 2021)
Read-outs that look alike come from different tables or passages of the source. Starred links: 1 amine or outer side, 2 acyl side, 3 side chain; linkers in the order of their positions; H or OH if unused. Non-standard residues stand in square brackets, D forms with d. Groups on a side chain read outwards from the residue. No end group written: not given here. *: point of attachment. γGlu = O=C(O)[C@H](CCC(=O)[*:2])N[*:1]; Palmitoyl = CCCCCCCCCCCCCCCC(=O)*; NMeF = CN[C@@H](Cc1ccccc1)C(=O)O; 125I = [125I]*

Tests used:
ghrelin receptor [1] = molecular target: T1, ghrelin receptor (UniProt Q92847 1-366)
GPR10 [2] = molecular target: T2, GPR10 (human, UniProt P49683 1-370)
T2 sequence (looked up): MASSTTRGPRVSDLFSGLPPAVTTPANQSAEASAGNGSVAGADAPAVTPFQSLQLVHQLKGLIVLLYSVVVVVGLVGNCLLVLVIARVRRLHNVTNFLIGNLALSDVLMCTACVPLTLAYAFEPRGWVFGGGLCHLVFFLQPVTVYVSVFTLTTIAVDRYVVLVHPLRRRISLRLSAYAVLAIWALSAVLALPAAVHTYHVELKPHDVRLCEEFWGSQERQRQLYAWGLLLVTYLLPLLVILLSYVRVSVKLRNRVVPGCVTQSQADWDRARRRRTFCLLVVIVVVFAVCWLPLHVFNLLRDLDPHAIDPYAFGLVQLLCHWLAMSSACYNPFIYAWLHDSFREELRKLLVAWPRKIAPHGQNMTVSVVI

kappa-opioid receptor [3] = molecular target: T3, kappa-opioid receptor (UniProt P41145 1-380)
[4] = molecular target: T4, neuropeptide Y receptor Y5 (UniProt Q15761 1-445)
T4 sequence (looked up): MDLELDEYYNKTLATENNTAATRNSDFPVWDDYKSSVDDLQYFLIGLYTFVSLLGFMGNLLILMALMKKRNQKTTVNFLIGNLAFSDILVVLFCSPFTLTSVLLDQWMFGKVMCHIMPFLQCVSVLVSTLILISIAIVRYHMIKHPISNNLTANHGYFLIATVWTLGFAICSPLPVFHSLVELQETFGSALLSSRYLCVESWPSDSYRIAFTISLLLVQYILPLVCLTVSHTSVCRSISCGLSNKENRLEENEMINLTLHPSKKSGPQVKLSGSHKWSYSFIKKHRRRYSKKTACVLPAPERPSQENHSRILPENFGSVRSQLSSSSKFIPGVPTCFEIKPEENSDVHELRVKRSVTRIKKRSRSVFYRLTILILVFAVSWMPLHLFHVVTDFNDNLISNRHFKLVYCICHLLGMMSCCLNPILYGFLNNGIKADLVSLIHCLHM

[5] = molecular target: T5, neuropeptide Y receptor Y2 (UniProt P49146 1-381); test: radioligand binding; competition with 0.1 nM [^125I]-PYY on U2OS cells with Y1, Y2 or Y5; 25 mM HEPES, 120 mM NaCl, 5 mM MgCl2, 4.7 mM KCl, 1 mM CaCl2, 0.5% BSA, 2 g/L glucose; peptides 10^-12 to 10^-5 M; 60 min at RT; Ki by the Cheng-Prusoff equation
T5 construct: receptor of NPY, Y2; source: U2OS cells stably expressing the receptor, bought: Thermo Fisher Scientific; on cells
T5 sequence (looked up): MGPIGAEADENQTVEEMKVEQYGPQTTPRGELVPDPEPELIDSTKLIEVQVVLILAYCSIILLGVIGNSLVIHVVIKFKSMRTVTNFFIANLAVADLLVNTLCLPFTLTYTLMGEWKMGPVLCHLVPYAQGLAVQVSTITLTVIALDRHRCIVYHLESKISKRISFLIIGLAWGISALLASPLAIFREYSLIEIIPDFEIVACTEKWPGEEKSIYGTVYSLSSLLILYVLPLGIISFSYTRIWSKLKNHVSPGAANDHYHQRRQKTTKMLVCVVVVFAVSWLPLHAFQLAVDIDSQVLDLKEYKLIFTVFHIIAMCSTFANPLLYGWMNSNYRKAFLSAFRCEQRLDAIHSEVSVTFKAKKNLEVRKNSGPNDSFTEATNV

kappa-opioid receptor [6] = molecular target: T3, kappa-opioid receptor; test: radioligand binding; saturation with [^125I]-dynorphin on KOR
ghrelin receptor [7] = molecular target: T1, ghrelin receptor; test: radioligand binding; saturation with [^125I]-ghrelin on GHSR
NPFF-R1 [8] = molecular target: T6, NPFF-R1 (UniProt Q9GZQ6 1-430); test: radioligand binding; saturation with [^125I]-1DMe on membranes from CHO-K1 cells expressing NPFF-R1; conditions: one partner purified
T6 construct: also called NPFF-1R; source: CHO-K1 cell line, bought: Perkin Elmer

ghrelin receptor [9] = molecular target: T1, ghrelin receptor; test: cell-based or functional assay
GPR10 [10] = molecular target: T2, GPR10; test: cell-based or functional assay
kappa-opioid receptor [11] = molecular target: T3, kappa-opioid receptor; test: cell-based or functional assay
[12] = molecular target: T4, neuropeptide Y receptor Y5; test: cell-based or functional assay
kappa-opioid receptor [13] = molecular target: T3, kappa-opioid receptor; test: radioligand binding; competition with [^125I]-dynorphin A on plasma membranes of CHO-K1 cells with KOR, 5 µg protein/tube; 50 mM Tris-HCl pH 7.4, 60 mM NaCl, 1 mM MgCl2, 0.5% BSA; 60 min at RT; filtration; Ki by the Cheng-Prusoff equation; conditions: one partner purified
ghrelin receptor [14] = molecular target: T1, ghrelin receptor; test: radioligand binding; competition with 0.1 nM [^125I]-ghrelin on U2OS cells stably expressing GHSR; 50 mM Tris-Cl pH 7.4, 118 mM NaCl, 5 mM MgCl2, 4.7 mM KCl, 0.1% BSA; peptides 10^-12 to 10^-5 M; 60 min at RT; Ki by the Cheng-Prusoff equation; conditions: one partner purified
GPR10 [15] = molecular target: T2, GPR10; test: radioligand binding; competition with [^125I]-PrRP31 on CHO-K1 cells expressing human GPR10; Ki by the Cheng-Prusoff equation; conditions: one partner purified
NPFF-R2 = molecular target: T7, NPFF-R2 (UniProt Q9Y5X5 1-522); test: radioligand binding; competition with [^125I]-1DMe on plasma membranes of CHO-K1 cells with NPFF-R2 or NPFF-R1, 5 µg protein/tube; 50 mM Tris-HCl pH 7.4, 60 mM NaCl, 1 mM MgCl2, 0.5% BSA; 60 min at RT; filtration; Ki by the Cheng-Prusoff equation; conditions: one partner purified
T7 construct: also called NPFF-2R; source: CHO-K1 cell line (AequoScreen), bought: Perkin Elmer

NPFF-R1 [16] = molecular target: T6, NPFF-R1; test: as above; conditions: one partner purified
[17] = molecular target: T8, neuropeptide Y receptor Y1 (UniProt P25929 1-384); test: radioligand binding; competition with 0.1 nM [^125I]-PYY on U2OS cells with Y1, Y2 or Y5; 25 mM HEPES, 120 mM NaCl, 5 mM MgCl2, 4.7 mM KCl, 1 mM CaCl2, 0.5% BSA, 2 g/L glucose; peptides 10^-12 to 10^-5 M; 60 min at RT; Ki by the Cheng-Prusoff equation; conditions: one partner purified
T8 construct: receptor of NPY, Y1; source: U2OS cells stably expressing the receptor, bought: Thermo Fisher Scientific; on cells
T8 sequence (looked up): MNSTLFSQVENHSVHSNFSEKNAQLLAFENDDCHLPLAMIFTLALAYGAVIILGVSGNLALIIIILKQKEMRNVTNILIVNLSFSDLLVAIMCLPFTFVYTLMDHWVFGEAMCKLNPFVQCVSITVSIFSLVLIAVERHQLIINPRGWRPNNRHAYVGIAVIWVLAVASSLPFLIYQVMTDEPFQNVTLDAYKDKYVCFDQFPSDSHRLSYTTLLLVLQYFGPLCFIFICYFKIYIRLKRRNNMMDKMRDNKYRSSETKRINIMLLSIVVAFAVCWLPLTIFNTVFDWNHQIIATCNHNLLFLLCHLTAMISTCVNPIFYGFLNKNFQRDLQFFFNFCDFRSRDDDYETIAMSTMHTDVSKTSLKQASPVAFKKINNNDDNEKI

[18] = molecular target: T4, neuropeptide Y receptor Y5; test: as above; conditions: one partner purified

Palm-PrRP31 (peptide) was tested, and the EC50, agonist mode, β-lactamase reporter assay (ghrelin receptor [1]) was 1270 nM, the EC50, agonist mode, β-lactamase reporter assay (GPR10 [2]) was 0.0718 nM and the EC50, agonist mode, β-lactamase reporter assay (kappa-opioid receptor [3]) was > 10000 nM. For the same molecule, the EC50, agonist mode, β-lactamase reporter assay [4] was 56.5 nM and the Ki [5] was > 10000 nM.

Work on [^125I]-dynorphin A (peptide) yielded a Kd (kappa-opioid receptor [6]) of 2.38 nM.

[^125I]-ghrelin (peptide) showed a Kd (ghrelin receptor [7]) of 0.44 nM.

B1: [^125I]-1DMe (peptide)
peptide: [dY](125I)L[NMeF]QPQRF-NH2
notes: 1DMe iodinated at D-Tyr1; numbers count on: the peptide
B1 gave a Kd (NPFF-R1 [8]) of 0.94 nM.

B2: Palm^11-PrRP31 (peptide)
peptide: SRTHRHSMEIK([γGlu-Palmitoyl])TPDINPAWYASRGIRPVGRF-NH2
notes: analog of human PrRP31 with Arg11 replaced by Lys11 that carries palmitic acid through a gamma-Glu linker; numbers count on: the peptide PrRP31; source: synthetic peptide, palmitoylated on resin, purified (HPLC, purity greater than 95%)
For B2, the “EC50, agonist mode, β-lactamase reporter assay” value (“EC50, agonist mode” for short) (ghrelin receptor [9]) was 1070 nM, the “EC50, agonist mode” value (GPR10 [10]) was 0.0391 nM and the “EC50, agonist mode” value (kappa-opioid receptor [11]) was > 10000 nM. For the same molecule, the “EC50, agonist mode” value [12] was 583 nM, the Ki (kappa-opioid receptor [13]) was 4280 nM and the Ki (ghrelin receptor [14]) was 2800 nM. The Ki (GPR10 [15]) was 3.44 nM, the Ki (NPFF-R2) was 7.66 nM and the Ki (NPFF-R1 [16]) was 13.5 nM. For the same molecule, the Ki ([5]; one partner purified) was > 10000 nM, the Ki [17] was > 10000 nM and the Ki [18] was 362 nM.
